Assay results published in patent publication US20200223906A1 (Adimab, published 2020).

Assays:
[1] = biological target: RSV F protein of subtype A (strain A2) on recombinant mKate-RSV virus (Respiratory syncytial virus subtype A …, UniProt P03420 26-574); experiment: cell-based or functional assay
[2] = biological target: RSV F protein of subtype B (18537) on recombinant mKate-RSV virus (Respiratory syncytial virus subtype B …, UniProt P13843 26-574); experiment: cell-based or functional assay
[3] = biological target: T1, RSV F subtype B, furin-cleaved ectodomain stabilized in the prefusion conformation (DS-Cav1) (Respiratory syncytial virus subtype B); experiment: BLI, IgG on AHQ sensor, 100 nM antigen
T1 construct: extracellular domain; Trimeric soluble antigen; also called Prefusion subtype B

[4] = biological target: T2, RSV F subtype A, furin-cleaved ectodomain stabilized in the prefusion conformation (DS-Cav1) (Respiratory syncytial virus subtype A, UniProt P03420 26-524); experiment: BLI, IgG on AHQ sensor, 100 nM antigen
T2 construct: extracellular domain; Trimeric soluble antigen; also called Prefusion subtype A

[5] = biological target: RSV F protein of subtype B (18537) on recombinant mKate-RSV (respiratory syncytial virus subtype B …, UniProt P13843 26-574); experiment: cell-based or functional assay
[6] = biological target: RSV F protein of subtype A (strain A2) on recombinant mKate-RSV (respiratory syncytial virus subtype A …, UniProt P03420 26-574); experiment: cell-based or functional assay

Binder | Neut IC50 (µg/ml) subtype A [1] [µg/mL] | Neut IC50 (µg/ml) subtype B [2] [µg/mL] | Kd [3] [nM] | Kd [4] [nM] | Neut IC50 subtype B [5] [µg/mL] | Neut IC50 subtype A [6] [µg/mL]
ADI-18902 (antibody, V domains shown, full-length IgG from yeast) VH: QVQLQESGPGLVKPSETLSLTCTVSGGSISGYYWSWIRQPPGRGLEWIGFIYYSGSTSYDSSLKSRVTISVDTSKNQFSLNLSSVTAADTAVYYCARSTWDYGDHFPFDYWGQGTLVTVSS VL: SYELTQPPSVSVAPGKTARITCGGNNIGIKDVHWYQLRPGQAPVLVISYDSDRPSGIPERFSGSNSGNTATLTISRVEAGDEADYFCQVWDSSPDHPYVFGTGTKLTVL | 0.024 | 0.15 | 0.101 | 0.107 |  | 
ADI-18979 (antibody, V domains shown) VH: EVQLLESGAEVKKPGASVKISCKASGYIFTSYGVSWVRQAPGQGLKWMGWISGYNGNTYYDQKFQGRVTMTTDTSTNTAYMELRSLTSDDTAVYYCARDSFSETGTGFPDFWGQGTLVTVSS VL: EIVLTQSPLSLPVTLGQPASISCRSSQSLEYSDGNTYLNWFQQRPGQSPRRLIYKVSNRDSGVPDRFSGSGSGTDFTLKISRVEAEDVGVYYCMQATHRPRTFGQGTKVDIK |  |  |  |  | 0.031 | 0.012
ADI-18983 (antibody, V domains shown) VH: EVQLVESGGGVVQPGRSLRLSCAASGFTFSSFSMHWVRQAPGKGLEWVALISSDERNSYYADSVKGRFTISRDNSKNTLYLQISRLKVEDTAVYYCAREAYEEWELTMGNLDHWGQGTLVTVSS VL: DIQLTQSPSSLSASVGDRVTITCRASQGIGNDLGWYQQKPGKAPKRLIYSTYSLQSGVPSRFSGSGSGTEFTLTISSLQPEDFATYYCLQHNRYPFTFGPGTKLEIK |  |  |  |  | 0.075 | 0.028
ADI-18926 (antibody, V domains shown, full-length IgG from yeast; also called Antibody Number 280; Ab # 280) VH: EVQLVESGAEVKKPGASVKVSCQTSGYTFSHFGVTWIRQAPGQGLEWLGWISAYNGNTDYADKLQGRLTMTTDTSTNTAYMELRSLRSDDTAVYYCARDPPASAAAMLDYWGQGTLVTVSS VL: DIVMTQSPLSLAVTLGQPASISCKSSQGLEYTDGNTYLSWFQQRPGQSPRRLIYKISNRDSGVPDRFSGSGSGTDFTLRISRVEAEDVGVYYCMQGTHGRGISFGPGTKVDIK | 0.023 | 0.092 | 0.25 | 0.252 |  | 
ADI-18908 (antibody, V domains shown, full-length IgG from yeast) VH: QVQLVESGGGLVKPGGSLRLSCAASGFTFSSFGMHWVRQAPGQGLEWVASITGGSSYINYADSVKGRFTISRDNAKKSLSLQMKNLRAEDTAEYYCVRGVLPGGTGGGWFDSWGQGTLVTVSS VL: QSVLTQPPSMSGAPGQRVTISCTGTSSNIGAGYDVQWYQQFPGTAPKLLISGNNNRPSGVPDRFSGSKSGASASLAITGLQAEDEADYYCQSYDYSLNWVFGGGTKLTVL | 0.018 | 0.095 | 0.352 | 0.302 |  | 
ADI-18917 (antibody, V domains shown, full-length IgG from yeast; also called Antibody Number 271; Ab # 271) VH: EVQLVESGGGLVKPGGSLRLSCAASGFTFSSFGMHWVRQAPGQGLEWVASITGGSSYINYADSVKGRFTISRDNAKKSLSLQMKNLRAEDTAEYYCVRGVLPGDTGGGWFDSWGQGTLVTVSS VL: QSVLTQPPSMSGAPGQRVTISCTGTSSNIGAGYDVQWYQQFPGTAPKLLISGNNNRPSGVPDRFSGSKSGASASLAITGLQAEDEADYYCQSYDYSLNWVFGGGTKLTVL | 0.024 | 0.091 | 0.332 | 0.356 |  | 
ADI-18985 (antibody, V domains shown) VH: QVQLVQSGPEVKKPGASVKVSCEASGYTFTDFFVHWVRQAPGEGLVWLGWVNPLSGATKYAQNFQGRVTMTSDTSITTAYMALSSLRHDDTAVYYCTSQTSPYTPGAMGVWGQGTTVTVSS VL: DIRVTQSPASLSAFVGDRVTITCRASPAISGYLSWYQQKAGKAPKILIYDASNLYSGAPSRFSGSRSGTDFTLTITSLQPEDFATYYCQQTYNGLIAFGPGTKVEIK |  |  |  |  | 0.09 | 0.034
ADI-18919 (antibody, V domains shown, full-length IgG from yeast) VH: QVQLQESGPGLEKPSQTLSLTCTVSRGSIRIGGYFWSWIRQHPGKGLEWLGYISNDGATDYNPSLRSRLAISADTSKNQFSLTLRSVTAADTAIYYCARTSYAGRMLDRWGQGILVTVSS VL: DIRVTQSPVSLPVTPGEPASISCRSSQSLLHSNGNNYLDWYLQKPGQSPQLLIYMGSYRASGVPDRFSGSGSGTDFTLKISRVEAEDVGVYYCMQGLQIPWTFGQGTKLEIK | 0.123 | 0.261 | 0.163 | 0.202 |  | 
ADI-18978 (antibody, V domains shown) VH: EVQLVESGGGVVQPGRSLRLSCEASGFTFSSFSMHWVRQAPGKGLEWVAVILYDGSNQYYADSVKGRFTISRDNSKNTLYLQMNTLRAEDTAMYYCAKSSSSHVNSRQDKWGQGTLVTVSS VL: EIVLTQSPSTLSASVGDRVTITCRASQSISRWLAWYQQKPGEAPKLLIHTASTLESGVPSRFSGSGSGTEFTLTINSLQPDDLATYYCQQYYNWWTFGQGTKVEIK |  |  |  |  | > 10 | > 10
ADI-18915 (antibody, V domains shown, full-length IgG from yeast; also called Antibody Number 269; Ab # 269) VH: QVQLVQSGGGLVKPGGSLRLSCAASGFTFSKAWMNWVRQAPGKGLEWVGRIRSKTDGGTADYAAPVKGRFTMSRDDSKNTLYLQMNSLKTEDTAVYYCATDSRRLYDSRGFYSSAFDVWGQGTTVTVSS VL: QSVLTQPPSVSGAPGQRVTISCTGSSSNIGAGYDVHWYQHLPGTAPKVLIYGNNNRPSGVPDRFSGSKSGTSASLAITGLQAEDEADYYCQSYDDSLTGWVFGGGTKVTVL | 1.2 | 0.021 | 0.421 | 28.1 |  | 
ADI-18986 (antibody, V domains shown) VH: EVQLLESGGGVVQPGKSLRLSCAASGFTFNTYAIHWVRQAPGKGLEWVAAISYDGSNEYYSNSVKGRFTISRDNSKYTLELQMNSLRPEDTAVYYCARGASYYYVSSDLGYWGQGTLVTVSS VL: QSVVTQPPSVSGAPGQRVTISCTGSSSNIGSGYDVHWYQQLPGTAPKVVIYGNINRPSGVPERFSGSKSGTSASLAITGLQAEDEADYYCQSYDSLSASWVFGGGTKLTVL |  |  |  |  | 0.123 | 0.464
ADI-18923 (antibody, V domains shown, full-length IgG from yeast) VH: EVQLLESGGGLVKPGGSLRLSCAASGFTFSSYSMNWVRQAPGKGLEWVSSISSSSSYIYYADSVKGRFTISRDNAKNSLYLQMNSLRAEDTAVYYCARDWPNSSSSPNWFDPWGQGTLVTVSS VL: QSVLTQPPSVSGAPGQRVTISCTGSSSNIGAGYDVHWYQQLPGTAPKLLIYGNSNRPSGVPDRFSGSKSGTSASLAITGLQAEDEADYYCQSYDSSLSGFYVFGTGTKLTVL | 0.078 | 0.147 | 1.79 | 0.517 |  | 
ADI-18912 (antibody, V domains shown, full-length IgG from yeast) VH: EVQLVESGGGLVKPGGALRLSCAASGFSFRSYSMNWVRQAPGKGLEWVSSISSSSNYINYADSVKGRFSISRDNAKNSLYLQMNSLRAEDTAVYYCARDLLPVERGPAFDIWGQGTMVTVSS VL: SYELTQPPSVSGAPGQRVTISCTGSSSNIGAGYDVHWFQQLPGAAPKLLIYANSNRPSGVPDRFSGSKSGTSASLAITGLQAEDEADYYCQSYDSRLGGSVFGGGTKVTVL | 0.024 | 0.061 | 0.286 | 0.258 |  | 
ADI-18987 (antibody, V domains shown) VH: QVQLVQSGAEVKKPGSSVKVSCKASGGTFSGHAINWVRQAPGQGLEWMGGIIHIFGTVNYAPKFQGRVTITADASTGTVYMELSSLISEDTAVYYCARDAYEVWTGSYLPPFDDWGQGTLVTVSS VL: DIVMTQSPGTLSLSPGDRVTLSCRASQTVTSSYLAWYQQKPGQAPRLLIYGAFTRATGIPDRFSGSGSGTDFTLSISRLEPEDFAVYYCQQYGSSFLTFGGGTKVDIK |  |  |  |  | 0.027 | 0.015
ADI-18913 (antibody, V domains shown, full-length IgG from yeast) VH: QVQLVQSGPEVKKPGESLTISCKGSGYDFSNNWIGWVRQMPGKGLEWMGIIYPGDSDTRYSPSFQGQVTLSVDKSISTAYLQWRSLKASDSGIYYCARQIGGLVCSSESCYFYGMDVWGQGTTVTVSS VL: DIQLTQSPSSLSASVGGRVTITCRASQSISNYLNWYQHKPGKAPELLIYGASSLQSGVPSRFSGSGSGTDFTLTISSLQPEDFATYYCQQSDTTPFTFGQGTKVDIK | < 0.01 | < 0.01 | 0.471 | 0.568 |  | 
ADI-18916 (antibody, V domains shown, full-length IgG from yeast; also called Antibody Number 270; Ab # 270) VH: QVQLVQSGPEVKKPGESLTISCKGSGYDFSNNWIGWVRQMPGKGLEWMGIIYPGDSDTRYSPSFQGQVTLSVDKSISTAYLQWRSLKASDSGIYYCARQIGGLVCSSESCYFYGMDVWGQGTTVTVSS VL: DIRVTQSPSSLSASVGGRVTITCRASQSISNYLNWYQHKPGKAPELLIYGASSLQSGVPSRFSGSGSGTDFTLTISSLQPEDFATYYCQQSDTTPFTFGQGTKLEIK | < 0.01 | < 0.01 | 0.465 | 0.585 |  | 
ADI-18920 (antibody, V domains shown, full-length IgG from yeast; also called Antibody Number 274; Ab # 274) VH: EVQLLESGGGVVQPGRSLRLSCAASGFTFSSYAMHWVRQTPDKGLEWVALISDDGRNEYYADSVQGRFTISRDKSKNTLHLEMNSLRAEDTAVYYCAKVRNEAWELLGNDDALDVWGQGTMVTVSS VL: QSVLTQPPSVSAAPGQKVTISCSGTSFNIGSNYVSWYQLLPGTAPKLLIFDNYKRPSGIPDRFSGSWSGTSATLAISGLQTGDEAEYFCGTWDTSLRAGVFGGGTKLTVL | 0.041 | 0.049 | 0.0977 | 0.678 |  | 
